The numbers were not newly measured in paper PMC2882753, which cites them from elsewhere.

One series relates to His134. Description: NMR. To be noted: 298 K; not stated (no ferricyanide present); oxidized [2Fe-2S] cluster.
Another series relates to His154. Description: NMR. Particulars: 298 K; not stated (no ferricyanide present); oxidized [2Fe-2S] cluster.

The term pKa denotes the pH at which an ionisable group is half protonated. As for “Rieske iron-sulfur protein, soluble fragment (TtRp) (Thermus thermophilus; del1-45;del202-210;W142F)”, the pKa is recorded as 9.24 ± 0.02 in the series on His134 and 7.46 ± 0.02 with His154.
